Results as given in PMC4701952.

Biological target: AG^(74-173) (A. thaliana) (UniProt P17839)
Experiment: SAXS with on-line SEC; Superdex 75 3.2/300 PC on-line at ESRF BM29, 0.1 ml/min, room temperature, 30 mM Tris pH 8.0, 300 mM NaCl, 1 mM TCEP, 5% glycerol; mass from correlated volume and Porod volume; self-association

Sequence of AG^(74-173) (P17839 74-173): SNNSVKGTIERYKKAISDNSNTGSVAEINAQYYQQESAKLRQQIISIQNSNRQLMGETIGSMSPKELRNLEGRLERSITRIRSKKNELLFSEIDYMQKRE

“AG^(74-173) (from UniProt P17839 74-173) (domain or fragment)” gave a stoichiometry N of 2.
